Measurements: US20260103529A1, “Amino Acid Sequences Directed Against the Melanocortin 4 Receptor and Polypeptides Comprising the Same for the Treatment of MC4R-Related Diseases and Disorders” (Confo Therapeutics N.V., priority 2022, published 2026)
Like-named read-outs stand apart in the source and are kept apart here.

Legend:
human MC4R = molecular target: T1, human MC4R (Homo sapiens, UniProt P32245); assay: Flow cytometry binding to Flag-tagged receptor in HEK293T cells, MC4R; conditions: 1 μM
T1 construct: Flag; expressed in transfected cells; host or cells: HEK293T
T1 sequence (P32245 whole entry): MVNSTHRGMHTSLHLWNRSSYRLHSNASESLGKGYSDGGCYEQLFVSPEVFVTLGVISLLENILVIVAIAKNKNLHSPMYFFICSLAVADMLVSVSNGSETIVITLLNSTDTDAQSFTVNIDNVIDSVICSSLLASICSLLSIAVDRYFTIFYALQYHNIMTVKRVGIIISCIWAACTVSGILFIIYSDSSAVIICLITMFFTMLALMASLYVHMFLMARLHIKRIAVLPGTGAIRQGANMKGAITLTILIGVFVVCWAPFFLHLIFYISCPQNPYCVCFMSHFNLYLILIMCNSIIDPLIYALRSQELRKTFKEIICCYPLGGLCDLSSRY
Experimental: (§1) To confirm MC4R activation, dose-dependent nanobody-induced cAMP signaling was assessed (Lance Ultra HTRF). […] Binding of pN162 to the human melanocortin receptor subtypes MC1R, MC2R, MC3R, MC4R or MC5R transiently expressed as Flag-tagged receptors in HEK293T cells was assessed by flow cytometry.

WT human MC4R [1] = molecular target: T2, WT human MC4R (Homo sapiens, UniProt P32245); assay: Gs ConfoSensor recruitment assay; type: cell-based; conditions: for EC50: WT human MC4R-expressing HEK293T cells
T2 construct: Flag (N); expressed in transfected cells; host or cells: HEK293T
T2 sequence (P32245 whole entry): as above

human wild type MC1R = molecular target: T3, human wild type MC1R (Homo sapiens, UniProt Q01726); assay: cAMP GloSensor assay, MC1R; type: cell-based
T3 construct: expressed in transfected cells; host or cells: HEK293 / HEK 293T, pcDNA3.1(+)
T3 sequence (Q01726 whole entry): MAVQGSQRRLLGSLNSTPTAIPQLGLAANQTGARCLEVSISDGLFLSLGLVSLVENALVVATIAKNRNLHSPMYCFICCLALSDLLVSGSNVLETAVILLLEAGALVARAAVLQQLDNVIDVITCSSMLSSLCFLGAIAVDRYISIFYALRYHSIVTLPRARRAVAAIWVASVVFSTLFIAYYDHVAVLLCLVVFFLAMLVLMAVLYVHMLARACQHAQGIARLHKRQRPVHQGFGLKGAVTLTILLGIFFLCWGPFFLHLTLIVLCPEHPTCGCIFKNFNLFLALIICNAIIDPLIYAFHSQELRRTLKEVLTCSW

WT human MC4R [2] = molecular target: T2, WT human MC4R; assay: β-arrestin recruitment assay; type: cell-based; conditions: for EC50: WT human MC4R-expressing HEK293T cells
DIO mice = assay: Diet-induced obese (DIO) mouse study, acute setting, ICV administration; type: in vivo
Experimental: The mouse studies described in Examples 2 and 3 were performed at a fully AAALAC accredited unit (Gubra, Denmark), and all animal experiments were conducted in accordance with the CRO's bioethical guidelines, which are fully compliant to internationally accepted principles for the care and use of laboratory animals. All experiments were licensed by the Danish Animal Experimentation Council. This animal model is based on male C57BI/6J mice that are fed for a minimum of 18 weeks a 60% high fat diet that result in rapid weight gain. The mice were obtained from commercial vendors in Europe and United States transferred to Gubra's animal unit. The animal room environment is controlled (targeted ranges: temperature 21±2° C.; relative humidity 50±10%). The animals are maintained on a reversed 12 h light/dark cycle and have access to plenty of bedding material, shelters and chewing sticks. Animals were dosed just before lights went off.
Male DIO mice (5 weeks of age at time of arrival and HF diet induction, 46 weeks of age at study start, n=50) had ad libitum access to 60% high fat diet (D12492, Research diets) and water. The DIO mice were acclimatized to an automated real-time food intake monitoring system (MoNI system) individually housed in the system for 14 days prior to study start. The animals went through ICV cannulation on study day −6/−5 and on study day−1, animals were randomized into 5 treatment groups (n=8 per group) based on body weight (PM, day−2).

human wild type MC5R = molecular target: T4, human wild type MC5R (Homo sapiens, UniProt P33032); assay: cAMP GloSensor assay, MC5R; type: cell-based
T4 construct: expressed in transfected cells; host or cells: HEK293 / HEK 293T, pcDNA3.1(+)
T4 sequence (P33032 whole entry): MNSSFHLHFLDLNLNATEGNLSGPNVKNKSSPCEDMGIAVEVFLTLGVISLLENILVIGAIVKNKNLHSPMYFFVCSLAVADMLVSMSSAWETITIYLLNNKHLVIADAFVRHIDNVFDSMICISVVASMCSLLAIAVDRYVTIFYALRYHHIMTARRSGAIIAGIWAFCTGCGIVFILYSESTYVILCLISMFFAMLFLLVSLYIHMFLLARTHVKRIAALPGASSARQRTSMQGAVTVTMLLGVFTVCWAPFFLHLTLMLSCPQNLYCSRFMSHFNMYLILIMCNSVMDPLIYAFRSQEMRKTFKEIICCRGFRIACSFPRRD

human MC3R = molecular target: T5, human MC3R (Homo sapiens, UniProt P41968); assay: Flow cytometry binding to Flag-tagged receptor in HEK293T cells, MC3R; conditions: 1 μM
T5 construct: Flag; expressed in transfected cells; host or cells: HEK293T
T5 sequence (P41968 whole entry): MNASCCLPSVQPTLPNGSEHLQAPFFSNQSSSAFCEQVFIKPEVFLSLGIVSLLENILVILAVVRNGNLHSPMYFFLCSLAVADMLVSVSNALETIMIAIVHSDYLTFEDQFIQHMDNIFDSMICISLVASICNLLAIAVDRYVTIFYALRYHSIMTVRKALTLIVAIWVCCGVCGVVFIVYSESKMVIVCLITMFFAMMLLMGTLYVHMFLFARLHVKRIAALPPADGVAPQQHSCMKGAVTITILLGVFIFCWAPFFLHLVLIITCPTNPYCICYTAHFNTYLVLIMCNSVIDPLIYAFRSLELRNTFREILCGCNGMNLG
Experimental: as §1

human wild type MC4R = human wild type MC4R (Homo sapiens, UniProt P32245); assay: cAMP GloSensor assay, MC4R; type: cell-based; set-up: Flag; expressed in transfected cells; host or cells: HEK293T
human wild type MC4R, sequence (P32245 whole entry): as the sequence (P32245 whole entry) above
Experimental: as §1
HEK 293T cells were routinely maintained at 37° C., 5% CO2, under humidified atmosphere in Dulbecco's modified Eagle's medium (DMEM, Gibco, cat. no. 41966-029) supplemented with 10% heat-inactivated fetal bovine serum. In preparation of the experiments, cells were plated on poly-L-lysine coated white 96-well plates (Costar: 3917) at the density of 3,00E+04 cells/well. At the moment of seeding, cells were transfected with 25 ng of human MC4R in pcDNA3.1 (+) and 50 ng of p22F GLoSensor plasmid (Promega Corporation), empty pcDNA3.1 (+) vector was added to obtain 100 ng of total DNA, using XtremeGene HP (Roche). To evaluate cross-reactivity of different VHHs for other melanocortin receptors, cells were additionally transfected with 50 ng of DNA encoding one of the three melanocortin receptors MC1R/MC3R/MC5R in pcDNA3.1 (+) and 50 ng of p22F GLoSensor plasmid (Promega Corporation), using XtremeGene HP (Roche). After 24 h post transfection, growing medium was gently removed from the cells and replaced with 90 μl/well of Assay medium (OptiMEM media containing 10% FBS HI with 2% GloSensor reagent (Promega)) in which cells were incubated for 2 h at room temperature in the dark. Next, background luminescence level was recorded using the En Vision 2104 Multilabel Plate Reader (Perkin Elmer). Samples (purified VHH produced in E. coli and/or mammalian cells with or without FC fusion) or benchmark compounds were prepared at 10× working concentration in OptiMEM containing 10% heat-inactivated Fetal Bovine Serum (FBS). After addition of 10 μl of samples luminescence was recorded in a kinetic mode using the En Vision 2104 Multilabel Plate Reader (Perkin Elmer). Data were analyzed using GraphPad Prism 8 by applying nonlinear regression (curve fit).

MC4R = assay: Radioligand displacement, CHO stable cell line; type: binding; conditions: mean ± spread, n = 2
[3] = Flag-tagged WT human MC4R HEK293T cells
[4] = absence vs presence of 1 mM Ca2+
[5] = GloSensor head-to-head receptor subtype comparison
[6] = pN162 0.5 and 5 nmol ICV on day 0 and day 2, study day 4

binding to MC4R by flow cytometry (human MC4R): only demonstrated for MC4R | Gs recruitment (WT human MC4R [1]; [3]): dose-dependently recruits | EC50 (WT human MC4R [1]; No Ca^2+, read-out: Gs ConfoSensor No Ca^2+ (EC50)): 8.5 ± 2.1 nM | dependence of Gs recruitment on Ca2+ ions (WT human MC4R [1]; [4]): independent of Ca^2+ ions | EC50 (WT human MC4R [1]; read-out: Gs ConfoSensor 1 mM Ca^2+ (EC50), 1 mM Ca^2+): 12 ± 5 nM | cAMP potency (EC50) MC1R (human wild type MC1R; GloSensor, average EC50, human MC1R): No effect | β-arrestin2 recruitment (WT human MC4R [2]; [3]): dose-dependently recruits | EC50 (WT human MC4R [2]; No Ca^2+, read-out: β-arrestin No Ca^2+ (EC50)): 16 ± 2.1 nM | dependence of β-arrestin recruitment on Ca2+ ions (WT human MC4R [2]; [4]): independent of Ca^2+ ions | EC50 (WT human MC4R [2]; read-out: β-arrestin 1 mM Ca^2+ (EC50), 1 mM Ca^2+): 23 ± 7.1 nM | cAMP potency (EC50) MC5R (human wild type MC5R; GloSensor, average EC50, human MC5R): No effect | binding to MC3R by flow cytometry (human MC3R): No binding could be detected | reduced potency in cAMP signaling via human MC4R compared to setmelanotide (human wild type MC4R; GloSensor): 6.7 fold | potency ranking among agonistic nanobodies (human wild type MC4R; GloSensor, Flag-tagged human wild type MC4R HEK293T cells): most potent full agonist nanobody | EC50 (human wild type MC4R; Promega GloSensor, HEK293 transiently transfected, real-time, read-out: cAMP assay (GloSensor)): 8.4 ± 3.29 nM | EC50 (human wild type MC4R; human wild type MC4R in HEK293T cells, read-out: average EC50, real-time cAMP monitoring (GloSensor), MC4R): 13.2 ± 5.6 nM
B1: pN162: agonistic anti-MC4R VHH, SEQ ID NO: 184; parental clone for potency maturation (protein)
VHH: QVQLVESGGGLVQPGGSLRLSCAASGSAFSLNVMGWYRQTPGNQRALVAEITKDGSTNYADSAKGRFTISRDNAKNTVHLQMDSLKPEDTAVYYCKARTGRIVRPLDYWGQGTQVTVSS
modifications: pN0162
detectable cAMP signaling, MC1R (human wild type MC1R; [5]): only induced detectable signaling on MC4R | cumulative food intake after first dose (DIO mice; pN162 0.5 and 5 nmol ICV): reduced by pN162 in a dose-dependent manner | cumulative food intake compared to vehicle (DIO mice; [6]): reduced | relative body weight compared to vehicle (DIO mice; [6]): reduced | detectable cAMP signaling, MC5R (human wild type MC5R; [5]): only induced detectable signaling on MC4R | detectable cAMP signaling, MC4R (human wild type MC4R; [5]): only induced detectable signaling on MC4R | Radioligand displacement (MC4R): 6.48 ± 1.96 nM
